Laboratory results taken from the nanobody polyreactivity screen of Harvey et al. (2022).

Assay: yeast display, Sf9 membrane polyspecificity reagent, FACS + sequencing; frameworks hold sequencing errors
In short: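 Galactose induction of a Saccharomyces cerevisiae BJ5465 synthetic nanobody display library ran 36–48 hours. The cells were then stained for 1 hour at 4 °C with 10% biotinylated, detergent-solubilized Sf9 membrane reagent, pulled down on streptavidin microbeads and FACS-sorted into low and high (top ~1%) gates on expression and reagent-binding fluorescence. Labels for polyreactivity follow the gate of origin.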

Sequence | polyreactivity (PSR sort gate)
QVQLVESGGGLVQAGGSLRLSCAASGSIFGGYVMGWYRQAPGKERELVAAITSGGSTYYADSVKGRFTISRDNAKNTVYLQMNSLKPEDTAVYYCNADPYTYSYGMYYWGHGTQVTVSS | low polyreactivity
QVQLVESGGGLVQAGGSLRLSCAASGRTFVYYDMGWYRQAPGKERELVASINWSGGSTYYADSVKGRFTISRDNAKNTVYLQMNSLKPEDTAVYYCAKEEITEWGVDSWGQGTQVTVSS | low polyreactivity
QVQLVESGGGLVQAGGSLRLSCAASGRTFYTYAMGWYRQAPGKERELVAGIRTGGGSTYYADSVKGRFTISRDNAKYSVYLQMNSLKPDDTAVYYCAADTYDGYDYWGQGSQVTVSS | low polyreactivity
QVQLVESGGRLVQAGGSLRLICAASGLTIRSYAMGWYRQAPGKERELVAAISDSGDSTYYADSVKGRFTISRDNAKNTVYFQMNSLKPEDTAVYYCAVEYSYEYEFWGQGTQVTVSS | low polyreactivity
QVQLVESGGGLVQEGGSLRLICAASGFIFRYYAMGWYRQAPGKERELVAAISRSGGSTSYADSVKGRFTISRDNAKITGDFQMNSLKPEDSAVYYCAKYVAFHYKQYDFNWGQGTQVYVSS | high polyreactivity
QVQLVDSGGGLVQAGGSLRLSCAASGFTFQRKAMGWYRQATGKERELVAAISKSGGSTYYADSVKARFTISRDNEKNTVYLEMNSLKPEDTAVYYCASTALFSGLTKRYYWGQGTQVTVSS | high polyreactivity
QVQLVESGGGLVQAGGSLRLSCAASGNTFYDNAMGWYRQTPGKERELVAAISYNDGDTYYADSVKGRFTISRDNAKNTVYLQMNSLKPEDTAVYFCAAVVRRVRGARGQEGDNYWGQGTQVTVSS | high polyreactivity
QVQLVESGGGLVQAGGSLRLSCAASGSTFSSYVMGWYRQAPGKERELVAAISSIGGSTYYADSVKGRFTISRDNAKNTVYLQMNSLKPEDTAVYYCAAEPPGSTYEGGYWGQGTQVTVSS | low polyreactivity
QVQLVESGGGLVQAGGSLRLSCAASGRTFGFYAMGWYRQAPGKERELVAAISKRGGSTYYADSVKGRFTISRDNAKNTVYLQMNSLKPEDTAVYYCAAVGYYLVKFDYWGQGTQVTVSS | high polyreactivity
QVQLVESGGGLVQAGGSLRLSCAAYGIIFRYYAMGWYRQAPGKERELVAAITASGGSTYYADSVKGRFTISRDHAKNTVYLQMNSLKPEDTAVYFGAAGSYFQHLIGYSTVSYGRNYWGQGTQVTVSS | high polyreactivity
QDQLVESGGGLVQEGGSLRLSCAASGNIFNRYGMGWYRQAPGKEREFVAAISSGGGSTYYADSVKGRFTISRDNAKNTVYLQINRLKPEDTAVYYCAAGYSSLRRVGVYYWRQGTQVTVSS | high polyreactivity
QFQLVESGGGLVQAGGSLRLSCAASGFTYYFYAMGWYRPAPGKERELVAAISRGGSTTYADSVKGRFTISRDNAKNTVYLQMYSLKPEDTAVYYCGADDYYDPHYEYDFWGQGTQVTVSS | low polyreactivity
QVQLVESGGGLVQAGGSLRLSCAASGITFLKNAMGWYRQAPGKERELVAAISSSGGSTYYADSVKGRFTISRDNAKNTVYLQMNSLKPEDTAVYYCAALSVGKRYRYEYWGQGTQVTVSS | high polyreactivity
QVQLVESGGGLVQAGGRLRLSCAASGITFNSYAMGWYRQAPGKERELVAAITLTGGTTYYADSVKGRFTISRDNAKNTVYLQKNSLKPEDTAVYYCAAQYWWWSRFEYDSWGQGTQVTVSS | low polyreactivity
QVQLVESGGGLVQAGGSLRLSCAASGRIFWTYAMGWYRQAPGKERELVAAINSSDGTYYADSVKGRFTISRDNAKNTVYLQMNSLKPEDTAVYYCNADRDALVGYDYDYWGQVTQVTVSS | low polyreactivity
QVQLVESGGALVQEGGSLRLSCAASGITFAGNAMGWYRQAPGKERELVATITSDGNTNYAVSVKGRFTISRDNAKNTVYLQMNSLKPEDTAVYYCNAEGENRRDRYDYWGQGTQVTVSS | low polyreactivity

Sequence | polyreactivity (PSR sort gate)
QVQLVESGGGLVQAGGSLRLSCAASGSIFPAIALGWYRQAPGKERELVAGISERGSSTYYADSVKGRFTISRDNAKNTVYLQMNSLKPEDTAVYYCAADDVGRYWSSTHNWARGDYWGQGTQVTVSS | low polyreactivity
QVQLVESGGGLVQAGGSLRLSCAASGFTFSSYAMGWYRQAPGKERELVAAITISGGRTYYSDSVKGRFTISRDNAKNTVYLQMNSLKPEDTAVYYCNTDYGRRYDYWGQGTQVTVSS | high polyreactivity
QVQLVESGGGLVQAGGSLRLSCAASGRIFSSYAMGWNRQAPGKERELVAAITDGDSTNYADSVKGRFTIARDNAKNTDYFQMNSLKPEDTAVYYCAVDILWYYPPGNYYYSSYDYWGQGTQVTVSS | low polyreactivity
QVQLVESGGGLVQAGGSHRLSCAASGSNIRFYAMGWYRQAPGKEREFVAAITSSGGNTYYADSVKGRFTISRDNAKNSVYLHMNSLKPEDTAVYYCAARYYGYGFDYWGQGTQVTVSS | high polyreactivity
QVQLEESGGRLVQAGGSIRLTCAASGSIFASNTKGWYRQAPGKERELVAGITKIGSSTYYADSVKGRFTISRDNAKNTVYLQMNSLKPEDTAVYYCNAYGPNIYSSRYDYWGQCTQVTVSS | low polyreactivity
QVQLVESGGGLVQAGGSLRLSCAASGYTFRSYMGWYRQAPGKEREFVADISTSVTNTYYADSVKGRFTISRDNAKNTVYLQMNSLKPEDTAVYYCAAGVQSVYNGEPGIILEFDYWGQGTQVTVSS | low polyreactivity
QVKLVESRGGLVQAGGSLRLSCAASGFTFFLYTMGWYRQAPGKERELVATITSAGTTNYADSVKGRFTISRDNAKNTVYLQMNSLIPEDTAVYYCNADRWEYDYWGQGTQVTVSS | low polyreactivity
QVQLVESGGGLVQAGGSLRLSCAASGSTFISYAMGWYRQAPGKERELVAAISSSGGSTYYADSVKGRFTISRDNAKYTVYLQMNSLKPEDTAVYYCAAESVYYRSWRYYYWGQGTQVTVSS | high polyreactivity
QVQLVESGGGLVQAGGSLRLSCAASGFTFRANAMGWYRQAPGKERELVAAISQSGGRTYYADSVKGRFTISRDNAKNTVYLQMNSLKPEDTAVYYCAAPYSAKELYYRMDYWGQGTQVTVSS | high polyreactivity
QVQLVESGGGLVQAGGSLRLSCAASGLIFVNAMGWYRQAPGKEREFVAAITYSTGSTYYADSVKGRFTISRDNAKNTVYLQMNSLKPEDTAVYYCAKDRSGHGTERDYWGQGTQVTVSS | low polyreactivity
QVQLVESGGGLVQAGGSLRLSCAASGFIFAYYAMGWYRQAPGKERELVAAISSRGGTYYADSVKGRFTISRDNAKNTVYLQMNSLKPEDTAVYYCAAASYTWVSRGYEYWGQGTQVTVSS | high polyreactivity
QVQLVESGGGLVQAGGSLRLSCAASGFIISGNAMGWYRQAPGKERELVASISRSGGSTYYADSVKGRFTISRDNAKNTVYLQMNSLKPEDTAVYYCNARYYAIGQFNYWGQGTQVTVSS | low polyreactivity
QVQLVESGGGLVQAGGSLRLSWAASGSIFGLNALGWYRQAPGKERELVADITSGGGNTYSADSVKGRFTISRDNAKNTVYLQMNSLKPEDTAVYYCNADYDLYFSGWYDYWGQGTQVTVSS | low polyreactivity
QVQLVESGGGLVQAGGSLRLSCAASGSTFPYYPMGWYRQAPGKERELVAAISRGDSTNYADSVKGRFTISRDNAKNTVYLQMNCLKPEDTAVYYCAARLQYRRTSVKYYFWGQGTQVTVSS | high polyreactivity
QVQLVESGGGLVQAGGSLRLSCAASGSTFPRYAMGWYRQAPGKERELVADISSGGSTYYADSVKGRFTISRDNAKNTVYLQMNSLKPEDTAVYYCNARRSRSRYDYWGQGTQVTVSS | high polyreactivity
QVQLVESGGGLVQAGGSLRLSCAASGFTFFYYAMGWYRQAPGKERELVARISSSGGRTYYADSVKGRFTISRDNAKNTVYLQMNSLKPEDTAVYYCNARYYYYYTRYDYWGQGTQVTVSS | high polyreactivity
